Experimental data published in US20070065429A1, “Nogo-receptor antagonists for the treatment of conditions involving amyloid plaques” (Biogen Idec MA Inc., priority 2003, published 2007).
Blank lines part the entries; values can stand above or below the substance they belong to.

Experiments:
NgR3 = molecular target: T1, NgR3 (Homo sapiens, UniProt Q86UN2); assay: Aβ-AP binding specificity, NgR3
T1 sequence (Q86UN2 25-420): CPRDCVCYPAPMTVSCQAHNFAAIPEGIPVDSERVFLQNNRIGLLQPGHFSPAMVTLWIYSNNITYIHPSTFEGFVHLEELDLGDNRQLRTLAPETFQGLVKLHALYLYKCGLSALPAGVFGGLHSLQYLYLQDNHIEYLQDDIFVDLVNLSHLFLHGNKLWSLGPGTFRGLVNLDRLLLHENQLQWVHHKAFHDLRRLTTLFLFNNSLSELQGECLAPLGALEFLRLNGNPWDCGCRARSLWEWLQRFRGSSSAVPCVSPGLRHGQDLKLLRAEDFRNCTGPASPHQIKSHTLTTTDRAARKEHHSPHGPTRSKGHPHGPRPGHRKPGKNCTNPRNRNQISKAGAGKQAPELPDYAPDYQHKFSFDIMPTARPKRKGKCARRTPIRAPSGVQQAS
Excerpt: (§1) The specificity and selectivity of the Aβ(1-28) interaction with NgR was probed in several ways. The interaction was specific for NgR1 because neither NgR2 or NgR3—which share sequence similarity with NgR—bound Aβ-AP. Further, we observed species specificity: human NgR binds human AB to a greater extent than mouse NgR binds human AB or human NgR binds mouse AB or mouse NgR binds mouse Aβ.

NgR2 = molecular target: T2, NgR2 (Homo sapiens, UniProt Q86UN3); assay: Aβ-AP binding specificity, NgR2
T2 sequence (Q86UN3 47-390): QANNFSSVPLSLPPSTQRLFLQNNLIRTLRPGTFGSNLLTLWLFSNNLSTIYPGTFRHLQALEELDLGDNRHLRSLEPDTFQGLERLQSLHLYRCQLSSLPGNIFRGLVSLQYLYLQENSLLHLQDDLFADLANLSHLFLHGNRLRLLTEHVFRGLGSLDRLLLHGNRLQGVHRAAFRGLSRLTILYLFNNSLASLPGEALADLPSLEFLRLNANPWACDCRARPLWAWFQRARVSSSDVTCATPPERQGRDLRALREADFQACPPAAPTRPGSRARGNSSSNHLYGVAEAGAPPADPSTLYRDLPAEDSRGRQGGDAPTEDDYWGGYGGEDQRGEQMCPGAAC
Excerpt: as §1

NgR = molecular target: T3, NgR (Homo sapiens, UniProt Q9BZR6); assay: AP-Aβ(1-28) fusion protein binding to NgR-expressing COS cells; details: not to vector-transfected COS cells
T3 construct: expressed in transfected cells; host or cells: COS cells
T3 sequence (Q9BZR6 27-473): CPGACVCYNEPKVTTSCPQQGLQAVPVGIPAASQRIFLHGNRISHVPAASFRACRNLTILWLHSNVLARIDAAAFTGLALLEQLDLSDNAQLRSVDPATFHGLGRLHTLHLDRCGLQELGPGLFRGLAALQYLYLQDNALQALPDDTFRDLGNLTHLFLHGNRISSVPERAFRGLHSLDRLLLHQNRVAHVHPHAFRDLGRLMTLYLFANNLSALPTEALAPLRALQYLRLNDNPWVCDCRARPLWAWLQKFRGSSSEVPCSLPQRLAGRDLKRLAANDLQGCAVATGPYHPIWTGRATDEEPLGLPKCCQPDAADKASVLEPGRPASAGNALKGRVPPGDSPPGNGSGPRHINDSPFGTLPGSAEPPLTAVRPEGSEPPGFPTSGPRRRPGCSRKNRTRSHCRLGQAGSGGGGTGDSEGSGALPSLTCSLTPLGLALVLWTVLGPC
Excerpt: We then investigated whether the Aβ region of APP is involved in its interaction with NgR—including whether the fibrillogenic Aβ42-3 peptide binds NgR. We created two fusion protein constructs containing alkaline phosphatase (AP) and the hydrophilic region of Aβ (amino acids 1-28) by fusing the coding sequence in frame with the signal sequence-6×His-placental alkaline phosphatase (AP) sequence of the vector pAP-6 (Nakamura et al., Neuron 2: 1093-1100, 1988). The AP-Aβ and Aβ-AP proteins both bound to NgR-expressing COS cells but not to vector-transfected COS cells. This binding was saturable with an apparent Kd of 60 nM. The interaction also was detected using purified Biotin-Aβ(1-40) in an ELISA-type assay with immobilized NgR.

sNgR310-Fc = molecular target: T4, sNgR310-Fc (Rattus norvegicus, UniProt Q99M75, A303T/C287S/C43R/E284G/T53A); assay: Competition of free Aβ with NgR ligands on sNgR310-Fc coated wells; format: binding; details: competition assay
T4 construct: Fc portion of IgG (rat)
T4 sequence (Q99M75 27-310 C43R/T53A/E284G/C287S/A303T): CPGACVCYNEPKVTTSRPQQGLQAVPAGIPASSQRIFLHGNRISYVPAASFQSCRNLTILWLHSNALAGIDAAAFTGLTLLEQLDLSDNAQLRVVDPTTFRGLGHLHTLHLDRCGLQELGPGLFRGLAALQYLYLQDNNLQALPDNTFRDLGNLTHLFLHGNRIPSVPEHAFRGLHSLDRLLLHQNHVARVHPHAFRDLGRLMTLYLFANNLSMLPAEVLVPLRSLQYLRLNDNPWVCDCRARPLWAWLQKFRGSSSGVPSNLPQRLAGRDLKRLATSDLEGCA
Procedure: We analyzed whether Aβ (1-28) binding competed for NgR binding with other known ligands for NgR by allowing 250 nM soluble AP-Aβ(1-28) or AP-Nogo (1-33) to bind to wells coated with purified sNgR310-Fc in the presence of various concentrations of competing free Aβ. […] We observed that the Aβ peptides bind to both sNgR310-Fc and sNgR344-Fc. […] However, Aβ(1-28) displaced Aβ-AP binding but not AP-Nogo-66 (1-33) or AP-OMgp binding in competition assays. The Aβ peptide may begin to displace AP-MAG very slightly at high concentrations in our experiments. Thus, the Aβ binding site on NgR appears largely distinct from that for the myelin ligands NogoA, OMgp and MAG. Consistent with this, the presence of Aβ had little effect on myelin or Nogo-66 inhibition of neurite outgrowth.

human NgR1 [1] = molecular target: T5, human NgR1 (Homo sapiens, UniProt Q9BZR6); assay: Aβ42 effect on Biotin-Aβ40 binding to SKNMC cells expressing human NGR1; details: SKNMC cells expressing human NGR1, dose-dependent
T5 construct: expressed in transfected cells; host or cells: SKNMC cells
T5 sequence (Q9BZR6 27-447): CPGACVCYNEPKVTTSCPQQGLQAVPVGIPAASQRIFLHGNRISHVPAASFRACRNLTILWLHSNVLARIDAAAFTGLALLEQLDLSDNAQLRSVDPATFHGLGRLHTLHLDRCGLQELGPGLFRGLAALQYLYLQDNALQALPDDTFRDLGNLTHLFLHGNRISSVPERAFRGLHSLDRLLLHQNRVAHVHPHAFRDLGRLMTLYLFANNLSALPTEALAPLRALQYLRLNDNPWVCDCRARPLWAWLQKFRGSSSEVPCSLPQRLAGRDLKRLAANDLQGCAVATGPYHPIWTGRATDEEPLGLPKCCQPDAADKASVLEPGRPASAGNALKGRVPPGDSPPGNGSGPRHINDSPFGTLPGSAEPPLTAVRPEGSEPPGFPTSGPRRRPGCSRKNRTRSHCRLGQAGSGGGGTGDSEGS

sNgR310 = molecular target: T6, sNgR310 (Rattus norvegicus, UniProt Q99M75, A303T/C287S/C43R/E284G/T53A); assay: Aβ42 effect on Biotin-Aβ40 binding to immobilized sNgR310; details: dose-dependent, streptavidin HRP
T6 sequence (Q99M75 27-310 C43R/T53A/E284G/C287S/A303T): T4 sequence (Q99M75 27-310 C43R/T53A/E284G/C287S/A303T)
Excerpt: We examined whether the interaction between NgR and Aβ peptide has a role in aggregate formation. sNgR310 was immobilized on microtiter plates and Biotin-Aβ40 was applied along with Aβ42 peptide.

human NgR1 [2] = molecular target: T5, human NgR1; assay: Fluo-Aβ42 binding to SKNMC cells expressing human NgR-1; details: 2 h at 4° C.

binding to NgR3 (NgR3): neither
binding to NgR2 (NgR2): neither
binding to NgR-expressing COS cells (NgR): bound
Substance: Aβ-AP: fusion protein of the hydrophilic region of Aβ (amino acids 1-28) and alkaline phosphatase (AP)

displacement of AP-Nogo-66 (1-33) binding (sNgR310-Fc): not
displacement of AP-OMgp binding (sNgR310-Fc): not
displacement of Aβ-AP binding (sNgR310-Fc): displaced
Substance: Aβ(1-28): free Aβ peptide, amino acids 1-28, used as competitor

effect on binding of Biotin-Aβ40 peptide to cells (human NgR1 [1]): enhanced
effect on binding of Biotin-Aβ40 peptide to immobilized sNgR310 (sNgR310): enhanced
Substance: Aβ42 peptide: fibrillogenic Aβ42 peptide

binding to SKNMC cells expressing human NgR-1 (human NgR1 [2]): binds
Substance: Fluo-Aβ42: labelled fibrillogenic Aβ42 peptide
